The values below come from patent publication US20260083855A1.

Common to all, as to assay: cell-based or functional assay
Experiment [1] has as its target IL-2R on human cells (activated CD4 T cells, PBMC subsets, NK92) (human) (UniProt P14784). More on the design: AUC of STAT5-P on PD1+ T cells / AUC of STAT5-P on PD1-blocked T cells: unit not given beside the values.
Experiment [2] has the same target. More on the design: EC50 on MFI of STAT5-P, PD-1+ CD4 T cells: unit not given beside the values.
Experiment [3] has the same target.

IL-2R on human cells (activated CD4 T cells, PBMC subsets, NK92) (human), sequence (P14784 27-551, chain 1 of 2): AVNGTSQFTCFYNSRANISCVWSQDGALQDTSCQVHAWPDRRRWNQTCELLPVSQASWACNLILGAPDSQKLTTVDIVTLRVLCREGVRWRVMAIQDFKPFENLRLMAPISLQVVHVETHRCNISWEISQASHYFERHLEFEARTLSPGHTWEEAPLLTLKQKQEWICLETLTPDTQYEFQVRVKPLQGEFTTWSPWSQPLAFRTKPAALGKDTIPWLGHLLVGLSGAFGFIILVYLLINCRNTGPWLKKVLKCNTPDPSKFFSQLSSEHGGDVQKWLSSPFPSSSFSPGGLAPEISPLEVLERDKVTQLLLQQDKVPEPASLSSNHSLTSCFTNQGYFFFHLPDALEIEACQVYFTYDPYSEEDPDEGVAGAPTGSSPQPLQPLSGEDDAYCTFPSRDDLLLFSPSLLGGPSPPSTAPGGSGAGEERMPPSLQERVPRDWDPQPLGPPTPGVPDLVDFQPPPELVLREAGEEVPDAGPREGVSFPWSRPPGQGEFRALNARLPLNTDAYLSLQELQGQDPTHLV
IL-2R on human cells (activated CD4 T cells, PBMC subsets, NK92) (human), sequence (P31785 23-369, chain 2 of 2, further chain): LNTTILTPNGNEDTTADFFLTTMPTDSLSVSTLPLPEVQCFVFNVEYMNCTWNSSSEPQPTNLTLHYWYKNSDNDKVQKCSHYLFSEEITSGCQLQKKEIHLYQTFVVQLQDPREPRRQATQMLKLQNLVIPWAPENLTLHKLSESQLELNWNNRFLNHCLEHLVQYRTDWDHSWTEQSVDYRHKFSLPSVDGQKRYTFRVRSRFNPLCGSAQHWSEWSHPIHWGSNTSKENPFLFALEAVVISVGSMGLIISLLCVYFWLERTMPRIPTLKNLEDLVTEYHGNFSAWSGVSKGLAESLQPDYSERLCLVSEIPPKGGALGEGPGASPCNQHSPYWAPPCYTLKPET

Regarding FAP-IL2v, in experiment [1], the AUC of STAT5-P on PD1+ T cells stood at 144, the AUC of STAT5-P on PD1-blocked T cells worked out at 142 and the Potency reduction vs PD1-IL2v was 8.13 fold. In experiment [2], the EC50 on MFI of STAT5-P, PD-1+ CD4 T cells was found to be 8530; the Potency reduction versus PD1-IL2v (MFI) was 12.6 fold; the Potency reduction versus PD1-IL2v (frequency) was 12.9 fold. Besides, in experiment [3], the Percentage of internalization (0.6 nM, activated CD4 T cells, 3 h at 37 C) is 89.8% and the Potency reduction vs PD1-IL2v on PD-1+ LAG-3+ T cells was found to be 107 fold.
